Reference: patent US20060292634A1 (CATCHMABS B V, published 2006)

How the values were obtained:
chicken lysozyme [1] = target: T1, chicken lysozyme (chicken, UniProt P00698 19-147); assay: ELISA on lysozyme, 100-fold dilution of the protein extract
T1 construct: Coated on ELISA plates (100 µg/ml) or immobilized on / passed over Eupergit columns
Experimental: The microtiter plate was excessively washed with PBS (3 times), PBS+0.1% Tween-20 (3 times) and PBS (3 times).
After excessive washing using PBS (3 times), PBS+0.1% Tween-20 (3 times) and PBS (3 times), wells were incubated with 100 μl Turbo-TMB for 5 minutes. Reaction was stopped with 100 μl 2M H₂SO₄ and absorbtion was read at 450 nm using a microtiter plate reader (Biorad).

chicken lysozyme [2] = target: T1, chicken lysozyme; assay: ELISA, lysozyme-coated well (100 µg/ml), ~50 ng iMab per well, anti-VSV-HRP; urea-purified
chicken lysozyme [3] = target: T1, chicken lysozyme; assay: ELISA

T1 sequence (P00698 19-147 limits assumed): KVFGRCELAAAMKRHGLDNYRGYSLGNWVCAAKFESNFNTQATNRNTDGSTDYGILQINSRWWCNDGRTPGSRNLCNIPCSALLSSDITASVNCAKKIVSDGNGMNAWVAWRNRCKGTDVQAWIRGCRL

| binding result (chicken lysozyme [3]) | Binder | ELISA signal over background signal (fold) (chicken lysozyme [1]) | Absorbtion (450 nm) (chicken lysozyme [2]) |
| --- | --- | --- | --- |
|  | iMab111 (designed binder, not shown: C-terminal linker, VSV-tag and 6xHis-tag from vector CM126) NVKLVCKGGNFVENDDDLKLTCRAEGYTIGPYCMGWFRQAPNDDSTNVATINMGGGITYYGDSVKERFDIRRDNASNTVTLSMDDLQPEDSAEYNCAGDSTIYASYYECGHGLSTGGYGYDSHYRCQGTDVTVSS | ~20 fold | 0.42 A450 |
| binds | iMab115 (designed binder, Expressed in E. coli (21 kD); also called iMab without glycosylation site) NVKLVEKGGNFVENDDDLKLTCRAEGYTIGPYCMGWFRQAPNDDSTNVATINMGGGITYYGDSVKERFDIRRDQASNTVTLSMDDLQPEDSAEYNCAGDSTIYASYYECGHGLSTGGYGYDSHYRGQGTDVTVSS |  |  |
|  | iMab1202 (designed binder, also called iMab1202 (1EJ6); not shown: C-terminal linker, VSV-tag and 6xHis-tag from vector CM126) IVKLVMEKRGNFENGQDCKLTIRASGYTIGPACDGFFCQFPSDDSFSTEDNMGGGITVNDAMKPQFDIRRDNAKGTWTLSMDFQPEGIYEMQCAADSTIYASYYECGHGLSTGGYGYDNPVRLGGFDVDVPDV |  | 0.317 A450 |
|  | iMab1300 (designed binder, not shown: C-terminal linker, VSV-tag and 6xHis-tag from vector CM126) LQVDIKPSQGEISVGESKFFLCQASGYTIGPCISWFSPNGEKLNMGSSTLTIYNANIDDAGIYKCAADSTIYASYYECGHGLSTGGYGYQSEATVNVKIFQ |  | 0.325 A450 |
|  | iMab1302 (designed binder, not shown: C-terminal linker, VSV-tag and 6xHis-tag from vector CM126) VVKVVIKPSQNFIENGEDKKFTCRASGYTIGPKCIGWFSQNPEDDSTNVATINMGGGITYYGDSVKERFDIRRDNAKDTSTLSIDDAQPEDAGIYKCAADSTIYASYYECGHGLSTGGYGYDSEATVGVDIFVKLM |  | 0.345 A450 |
|  | iMab1602 (designed binder, not shown: C-terminal linker, VSV-tag and 6xHis-tag from vector CM126) AVKPVIGSKAPNFGENGDVKTIDRASGYTIGPTCGGVFFQGPTDDSTNVATINMGGGITYYGDSVKETFDIRRDNAKSTRTESYDDNQPEGLTEVKCAADSTIYASYYECGHGLSTGGYGYDVSSRLYGYDILVGTQ |  | 0.357 A450 |
|  | iMab122 (designed binder, not shown: C-terminal linker, VSV-tag and 6xHis-tag from vector CM126) NVKLVEKGGNFVENDDDLKLTCRASGRTFSSRTMGWFRQAPNDDSTNVATIRWNGGSTYYTNYGDSVKERFDIRVDQASNTVTLSMDDLQPEDSAEYNCAGTDIGDGWSGRYDYRGQGTDVTVSS |  | 0.271 A450 |
